Reference: the supplement of paper PMC9112550, “Optimization of the antimicrobial peptide Bac7 by deep mutational scanning” (BMC Biology, 2022)

tested on: Escherichia coli TOP10; assay: shrunken log2 fold change of peptide-encoding DNA abundance (4.5 h post-induction vs induction); higher = less antimicrobial activity (less host growth inhibition); details: time post-induction: 4.5 h; library: site-saturation at positions 5, 18, 19, 20
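Also: peptides expressed intracellularly from a pBAD plasmid library in pooled LB shake-flask culture, induced with 0.3% L-arabinose, DNA abundance read by NGS, three biological replicates, DESeq2 with apeglm shrinkage.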

Row | Sequence | shrunken log2 fold change
1 | RRIRPRPPRLPRPRPRPEDDPRP | 0.413
2 | RRIRKRPPRLPRPRPRPDCSPRP | -0.0754
3 | RRIRRRPPRLPRPRPRPAPIPRP | 0.92
4 | RRIRNRPPRLPRPRPRPAFAPRP | 0.158
5 | RRIRGRPPRLPRPRPRPHLRPRP | -0.148
6 | RRIRVRPPRLPRPRPRPPPWPRP | 0.758
7 | RRIRKRPPRLPRPRPRPAGRPRP | 0.432
8 | RRIRHRPPRLPRPRPRPRGTPRP | -0.164
9 | RRIRFRPPRLPRPRPRPTNSPRP | -0.271
10 | RRIRDRPPRLPRPRPRPMYSPRP | 0.0101
11 | RRIRARPPRLPRPRPRPWSMPRP | -0.198
12 | RRIRKRPPRLPRPRPRPAMPPRP | 0.788
13 | RRIRPRPPRLPRPRPRPCDVPRP | -0.155
14 | RRIRERPPRLPRPRPRPSKAPRP | -0.129
15 | RRIRFRPPRLPRPRPRPNTPPRP | -0.263
16 | RRIRQRPPRLPRPRPRPGIEPRP | -0.113
17 | RRIRDRPPRLPRPRPRPRPHPRP | 0.465
18 | RRIRARPPRLPRPRPRPSGNPRP | 0.0499
19 | RRIRTRPPRLPRPRPRPYRNPRP | -0.21
20 | RRIRARPPRLPRPRPRPMWSPRP | 0.0725
21 | RRIRRRPPRLPRPRPRPMYSPRP | -0.0989
22 | RRIRVRPPRLPRPRPRPPQQPRP | 0.575
23 | RRIRLRPPRLPRPRPRPALKPRP | 0.489
24 | RRIRQRPPRLPRPRPRPISTPRP | -0.503
25 | RRIRDRPPRLPRPRPRPPVTPRP | -0.0696

Row | Sequence | shrunken log2 fold change
26 | RRIRKRPPRLPRPRPRPSWVPRP | -0.0457
27 | RRIRMRPPRLPRPRPRPFFGPRP | -0.0869
28 | RRIRPRPPRLPRPRPRPLQMPRP | 0.205
29 | RRIRQRPPRLPRPRPRPANNPRP | -0.27
30 | RRIRDRPPRLPRPRPRPTRHPRP | 0.42
31 | RRIRKRPPRLPRPRPRPDPWPRP | 0.422
32 | RRIRQRPPRLPRPRPRPLWWPRP | 0.121
33 | RRIRSRPPRLPRPRPRPLSTPRP | -0.369
34 | RRIRDRPPRLPRPRPRPLGQPRP | 0.0401
35 | RRIRPRPPRLPRPRPRPDGNPRP | 0.0274
36 | RRIRGRPPRLPRPRPRPKPNPRP | 1.05
37 | RRIRNRPPRLPRPRPRPTVGPRP | -0.0817
38 | RRIRFRPPRLPRPRPRPEGEPRP | -0.0563
39 | RRIRMRPPRLPRPRPRPTWLPRP | 0.266
40 | RRIRARPPRLPRPRPRPVVWPRP | 0.687
41 | RRIRVRPPRLPRPRPRPLYRPRP | -0.047
42 | RRIRMRPPRLPRPRPRPVWEPRP | 0.4
43 | RRIRPRPPRLPRPRPRPDDWPRP | 0.247
44 | RRIRDRPPRLPRPRPRPSFWPRP | 0.585
45 | RRIRLRPPRLPRPRPRPDYQPRP | -0.137
46 | RRIRTRPPRLPRPRPRPLANPRP | -0.105
47 | RRIRPRPPRLPRPRPRPEMLPRP | 0.16
48 | RRIRKRPPRLPRPRPRPTYKPRP | -0.198
49 | RRIRGRPPRLPRPRPRPGWCPRP | 0.484
50 | RRIRLRPPRLPRPRPRPGAYPRP | -0.16

Row | Sequence | shrunken log2 fold change
51 | RRIRSRPPRLPRPRPRPLPRPRP | 0.741
52 | RRIRMRPPRLPRPRPRPCFPPRP | 0.157
53 | RRIRARPPRLPRPRPRPQQQPRP | 0.946
54 | RRIRDRPPRLPRPRPRPSPWPRP | 0.188
55 | RRIRSRPPRLPRPRPRPVETPRP | 0.00492
56 | RRIRVRPPRLPRPRPRPWWDPRP | 0.00445
57 | RRIRPRPPRLPRPRPRPIEKPRP | 0.0388
58 | RRIRIRPPRLPRPRPRPTIEPRP | -0.44
59 | RRIRHRPPRLPRPRPRPPDNPRP | -0.0231
60 | RRIRMRPPRLPRPRPRPLVAPRP | 1.16
61 | RRIRARPPRLPRPRPRPYVWPRP | 0.053
62 | RRIRQRPPRLPRPRPRPWSHPRP | -0.105
63 | RRIRTRPPRLPRPRPRPFKPPRP | -0.0194
64 | RRIRVRPPRLPRPRPRPKLMPRP | -0.203
65 | RRIRHRPPRLPRPRPRPVFSPRP | 0.0833
66 | RRIRGRPPRLPRPRPRPIHIPRP | 0.304
67 | RRIRMRPPRLPRPRPRPDNPPRP | 0.0534
68 | RRIRYRPPRLPRPRPRPHDVPRP | -0.379
69 | RRIRCRPPRLPRPRPRPHYHPRP | -0.755
70 | RRIRFRPPRLPRPRPRPGAEPRP | 0.286
71 | RRIRKRPPRLPRPRPRPEHYPRP | 0.0532
72 | RRIRERPPRLPRPRPRPKNMPRP | -0.479
73 | RRIRPRPPRLPRPRPRPAVGPRP | 0.414
74 | RRIRNRPPRLPRPRPRPDDRPRP | 0.0384
75 | RRIRSRPPRLPRPRPRPHVTPRP | -0.232

Row | Sequence | shrunken log2 fold change
76 | RRIRKRPPRLPRPRPRPVSMPRP | 0.224
77 | RRIRVRPPRLPRPRPRPCMFPRP | -0.559
78 | RRIRLRPPRLPRPRPRPFVIPRP | -0.214
79 | RRIRRRPPRLPRPRPRPWKEPRP | -0.00773
80 | RRIRGRPPRLPRPRPRPHQAPRP | 0.354
81 | RRIRGRPPRLPRPRPRPNTAPRP | 0.543
82 | RRIRCRPPRLPRPRPRPYVEPRP | -0.942
83 | RRIRDRPPRLPRPRPRPVVGPRP | 0.642
84 | RRIRLRPPRLPRPRPRPPFFPRP | 0.14
85 | RRIRARPPRLPRPRPRPCGRPRP | 0.526
86 | RRIRWRPPRLPRPRPRPNERPRP | 0.119
87 | RRIRWRPPRLPRPRPRPYEDPRP | -0.231
88 | RRIRDRPPRLPRPRPRPHPGPRP | 0.163
89 | RRIRVRPPRLPRPRPRPYIQPRP | -0.472
90 | RRIRSRPPRLPRPRPRPTTQPRP | 0.22
91 | RRIRPRPPRLPRPRPRPADNPRP | -0.428
92 | RRIRDRPPRLPRPRPRPQSTPRP | -0.466
93 | RRIRTRPPRLPRPRPRPTKWPRP | -0.0752
94 | RRIRIRPPRLPRPRPRPQTFPRP | -0.156
95 | RRIRSRPPRLPRPRPRPRHKPRP | -0.262
96 | RRIRWRPPRLPRPRPRPLTVPRP | -0.0954
97 | RRIRHRPPRLPRPRPRPDARPRP | 0.133
98 | RRIRFRPPRLPRPRPRPYLSPRP | -1.86
99 | RRIRTRPPRLPRPRPRPMWSPRP | -0.0629
100 | RRIRMRPPRLPRPRPRPVVTPRP | 0.0538

Row | Sequence | shrunken log2 fold change
101 | RRIRYRPPRLPRPRPRPLPIPRP | -0.722
102 | RRIRRRPPRLPRPRPRPHTSPRP | -0.0729
103 | RRIRNRPPRLPRPRPRPDGRPRP | -0.109
104 | RRIRRRPPRLPRPRPRPPTQPRP | 0.678
105 | RRIRKRPPRLPRPRPRPHLPPRP | 0.0692
106 | RRIRQRPPRLPRPRPRPASLPRP | -0.232
107 | RRIRWRPPRLPRPRPRPCIAPRP | 0.00205
108 | RRIRSRPPRLPRPRPRPLCQPRP | -0.135
109 | RRIRFRPPRLPRPRPRPFASPRP | -0.705
110 | RRIRIRPPRLPRPRPRPISHPRP | -0.0541
111 | RRIRKRPPRLPRPRPRPFDDPRP | -0.131
112 | RRIRYRPPRLPRPRPRPVLNPRP | -0.258
113 | RRIRPRPPRLPRPRPRPQGHPRP | 0.05
114 | RRIRYRPPRLPRPRPRPPTSPRP | -0.0241
115 | RRIRFRPPRLPRPRPRPHNVPRP | 0.0631
116 | RRIRLRPPRLPRPRPRPMNTPRP | -0.524
117 | RRIRYRPPRLPRPRPRPCMSPRP | -0.282
118 | RRIRDRPPRLPRPRPRPPFSPRP | 0.0121
119 | RRIRTRPPRLPRPRPRPTYSPRP | -1.56
120 | RRIRSRPPRLPRPRPRPIEWPRP | 0.0274
121 | RRIRKRPPRLPRPRPRPDQQPRP | 0.0777
122 | RRIRYRPPRLPRPRPRPQVQPRP | -0.0106
123 | RRIRARPPRLPRPRPRPRTHPRP | 0.259
124 | RRIRARPPRLPRPRPRPQVWPRP | 0.275
125 | RRIRPRPPRLPRPRPRPPTDPRP | 0.184

Row | Sequence | shrunken log2 fold change
126 | RRIRKRPPRLPRPRPRPYDQPRP | 0.0359
127 | RRIRLRPPRLPRPRPRPSNMPRP | -0.406
128 | RRIRTRPPRLPRPRPRPYHFPRP | -0.28
129 | RRIRDRPPRLPRPRPRPRSGPRP | 0.276
130 | RRIRSRPPRLPRPRPRPLERPRP | -0.0196
131 | RRIRKRPPRLPRPRPRPREVPRP | 0.538
132 | RRIRTRPPRLPRPRPRPGADPRP | 0.301
133 | RRIRQRPPRLPRPRPRPGCDPRP | -0.229
134 | RRIRARPPRLPRPRPRPLQWPRP | 0.539
135 | RRIRYRPPRLPRPRPRPNLIPRP | -0.438
136 | RRIRARPPRLPRPRPRPLTVPRP | 0.242
137 | RRIRPRPPRLPRPRPRPGYQPRP | -0.0523
138 | RRIRRRPPRLPRPRPRPKYRPRP | -0.000605
139 | RRIRFRPPRLPRPRPRPFIFPRP | -0.544
140 | RRIRLRPPRLPRPRPRPLLEPRP | -0.0263
141 | RRIRPRPPRLPRPRPRPMSSPRP | -0.135
142 | RRIRPRPPRLPRPRPRPGCEPRP | 0.113
143 | RRIRWRPPRLPRPRPRPSPKPRP | 0.403
144 | RRIRARPPRLPRPRPRPYKDPRP | -0.348
145 | RRIRARPPRLPRPRPRPACLPRP | 0.347
146 | RRIRPRPPRLPRPRPRPWIRPRP | -0.175
147 | RRIRTRPPRLPRPRPRPQANPRP | -0.156
148 | RRIRSRPPRLPRPRPRPEMFPRP | -0.0055
149 | RRIRDRPPRLPRPRPRPNKGPRP | -0.00129
150 | RRIRVRPPRLPRPRPRPINFPRP | -0.458
